According to publication PMC11879689, “Integrative in silico and biochemical analyses demonstrate direct Arl3-mediated ODA16 release from the intraflagellar transport machinery” (The Journal of Biological Chemistry, 2025):
Like-named read-outs stand apart in the source and are kept apart here. One block for each molecule: values may come before it.

Experiments:
[1] = target: ODA16 (Chlamydomonas reinhardtii) (UniProt Q3Y8L7); experiment: ITC; conditions: cited from earlier work
[2] = target: CrODA16 C-terminal β-propeller, CrODA16C(80-423) (Chlamydomonas reinhardtii) (UniProt Q3Y8L7); experiment: ITC; 25 °C, MicroCal iTC200; 10 mM HEPES pH 7.5, 200 mM NaCl, 0.5 mM TCEP; 20 μM CrODA16 in the cell, 200 μM IFT46 peptide or CrIDA3 in the syringe
[3] = target: T1, full-length CrODA16 (CrODA16fl) (Chlamydomonas reinhardtii, UniProt Q3Y8L7 1-446); experiment: as above
T1 construct: ODA16, Chlamydomonas reinhardtii, full length (N-terminal domain residues 1-80, C-terminal beta-propeller residues 80-445); it may be the same protein as CrODA16-HT
T1 sequence (looked up): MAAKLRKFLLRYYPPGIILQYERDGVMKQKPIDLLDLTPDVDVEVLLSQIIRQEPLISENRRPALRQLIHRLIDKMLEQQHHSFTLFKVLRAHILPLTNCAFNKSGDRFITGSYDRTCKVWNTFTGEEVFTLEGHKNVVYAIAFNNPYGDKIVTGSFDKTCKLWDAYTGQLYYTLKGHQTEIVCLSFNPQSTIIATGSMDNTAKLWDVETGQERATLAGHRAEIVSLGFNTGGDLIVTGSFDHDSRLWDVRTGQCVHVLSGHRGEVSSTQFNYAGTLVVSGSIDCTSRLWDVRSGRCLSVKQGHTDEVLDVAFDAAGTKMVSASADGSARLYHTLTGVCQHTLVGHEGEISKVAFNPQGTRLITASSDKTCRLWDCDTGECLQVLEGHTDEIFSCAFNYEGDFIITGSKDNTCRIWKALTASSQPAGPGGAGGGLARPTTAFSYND

[4] = target: T2, hexa-His-tagged CrODA16 (CrODA16-HT) (Chlamydomonas reinhardtii, UniProt Q3Y8L7 1-446); experiment: pull-down; CrODA16-HT immobilised on nickel resin; two preys added together (CrIFT46 with CrIDA3, also at 3:1 excess of CrIFT46; CrIFT46 with CrArl3), beside each prey alone; conditions: both partners purified
T2 construct: ODA16, Chlamydomonas reinhardtii; Bait on nickel resin
T2 sequence (looked up): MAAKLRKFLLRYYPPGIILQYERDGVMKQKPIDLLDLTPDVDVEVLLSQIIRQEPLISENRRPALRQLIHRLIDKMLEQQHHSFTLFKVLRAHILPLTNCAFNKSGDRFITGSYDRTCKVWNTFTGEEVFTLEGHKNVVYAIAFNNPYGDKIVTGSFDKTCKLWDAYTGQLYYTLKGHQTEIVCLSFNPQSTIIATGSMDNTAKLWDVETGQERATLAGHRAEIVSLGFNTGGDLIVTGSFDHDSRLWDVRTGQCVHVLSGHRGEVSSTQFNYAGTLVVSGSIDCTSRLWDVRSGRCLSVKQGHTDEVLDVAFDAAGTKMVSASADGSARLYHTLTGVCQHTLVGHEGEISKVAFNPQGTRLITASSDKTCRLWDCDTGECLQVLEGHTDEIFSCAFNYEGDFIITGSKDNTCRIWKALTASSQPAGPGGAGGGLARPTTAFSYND

[5] = target: T1, full-length CrODA16 (CrODA16fl); experiment: pull-down; competitive binding (titration) assay: GST-tagged bait (10 μM) pre-complexed with CrODA16 (20 μM) on GSH resin, washed, then untagged competitor at rising concentrations, 1 h 4 °C; eluted with 33 mM glutathione, SDS-PAGE; conditions: both partners purified
[6] = target: T2, hexa-His-tagged CrODA16 (CrODA16-HT); experiment: pull-down; CrODA16-HT (10 μM) immobilised on nickel resin, one prey (20–30 μM), 1 h 4 °C; 10 mM HEPES pH 7.5, 200 mM NaCl, 2 mM MgCl2, 1 mM DTT; eluted with 500 mM imidazole, SDS-PAGE; CrArl3 nucleotide-free; conditions: both partners purified

binding result [5]: binds
B2: GST-CrIFT46 (natural protein, Chlamydomonas reinhardtii, UniProt A2T2X4 1-344, looked up)
chain: MDDSMDYPDRDGDDLDQFQGTARSQVVQNQPHDEEVNLSESESFAGADEPPAAPRDASLIESHDMDEGPAAPARTLSPTGYEAGKHAPGGIANSDEAPPGAYNAQEYKHLNVGEDVRELFSYIGRYKPQTVELDTRIKPFIPDYIPAVGGIDEFIKVPRPDTKPDYLGLKVLDEPAAKQSDPTVLTLQLRQLSKEAPGAKADMVGRLEHTDENKAKKIQQWIASINDIHKAKPAATVNYSKRMPEIEALMQEWPPEVETFLKTMHMPSGDVELDIKTYARLVCTLLDIPVYDDPVESLHVLFTLYLEFKNNPIFRQHMEMENKLDGMSGGGGGMMGGGADVLGL
notes: IFT46, Chlamydomonas reinhardtii; also called GST-tagged CrIFT46

binding result [6]: binds
B4: CrArl3_Q70L (GTP-locked, full length) (enzyme, Chlamydomonas reinhardtii, UniProt A8ISN6 1-177, looked up)
chain: MGLLSLIRGLKKKEGEARILVLGLDNAGKTTILKALSEEDITTITPTQGFNIKSLSRDGFNLKIWDIGGLKSIRPYWRNYFDQTDALIYVIDSADSKRLSESEFELTELLQEEKMTGVPLLVFANKQDLVGALAADEIASTLDLTSIRDRPWQIQACSAKQGTGLKEGMEWMMKQVK
notes: Arl3, Chlamydomonas reinhardtii, with Q70L; codon-optimised synthetic gene; Cloned with C-terminal TEV-His8; Used nucleotide-free or loaded with GTP; also called CrArl3_Q70L-FL

Continued, molecule first:

Molecule: IFT46 (from UniProt A2T2X4)
Kd [1]: 200 nM

Molecule: CrIDA3 (residues 1-166 and 241-366), untagged (domain or fragment)
Kd [2]: 288 nM | Kd [3]: 1770 nM | stoichiometry N [3]: 0.996

B1: CrIFT46 (wild type, untagged) (natural protein, Chlamydomonas reinhardtii, UniProt A2T2X4 1-344, looked up)
chain: MDDSMDYPDRDGDDLDQFQGTARSQVVQNQPHDEEVNLSESESFAGADEPPAAPRDASLIESHDMDEGPAAPARTLSPTGYEAGKHAPGGIANSDEAPPGAYNAQEYKHLNVGEDVRELFSYIGRYKPQTVELDTRIKPFIPDYIPAVGGIDEFIKVPRPDTKPDYLGLKVLDEPAAKQSDPTVLTLQLRQLSKEAPGAKADMVGRLEHTDENKAKKIQQWIASINDIHKAKPAATVNYSKRMPEIEALMQEWPPEVETFLKTMHMPSGDVELDIKTYARLVCTLLDIPVYDDPVESLHVLFTLYLEFKNNPIFRQHMEMENKLDGMSGGGGGMMGGGADVLGL
notes: IFT46, Chlamydomonas reinhardtii; also called WT CrIFT46
binding result [4]: binds | binding result [5]: binds

B3: CrIFT46(23-44) peptide (peptide, UniProt A2T2X4 23-44, looked up)
peptide: RSQVVQNQPHDEEVNLSESESF
notes: IFT46, Chlamydomonas reinhardtii, residues 23-44; R23 and F44 mark the ends of the peptide; also called IFT46 peptide; source: synthetic peptide
Kd ([3]; both partners purified): 1000 ± 380 nM
